Reference: patent publication CN114874330A

Legend:
[1] = biological target: BCMA-CAR (CAR with the CT103A scFv) on cells; test: flow cytometry, AF647-labelled antibody on BCMA-CAR-Jurkat cells; first series, 2-fold dilution step 1 of 10 (highest); negative control MFI 0.18; design: scale not given here
[2] = biological target: BCMA-CAR (CAR with the CT103A scFv) on cells; test: flow cytometry, AF647-labelled antibody on BCMA-CAR-Jurkat cells; SECOND series, also printed as 12F1 (possibly 6G8), step 5 of 10; design: scale not given here
[3] = biological target: BCMA-CAR (CAR with the CT103A scFv) on cells; test: flow cytometry, AF647-labelled antibody on BCMA-CAR-Jurkat cells; SECOND series, also printed as 12F1 (possibly 6G8), step 8 of 10; design: scale not given here
[4] = biological target: BCMA-CAR (CAR with the CT103A scFv) on cells; test: flow cytometry, AF647-labelled antibody on BCMA-CAR-Jurkat cells; SECOND series, also printed as 12F1 (possibly 6G8), step 4 of 10; design: scale not given here
[5] = biological target: BCMA-CAR (CAR with the CT103A scFv) on cells; test: flow cytometry, AF647-labelled antibody on BCMA-CAR-Jurkat cells; SECOND series, also printed as 12F1 (possibly 6G8), step 7 of 10; design: scale not given here
[6] = biological target: BCMA-CAR (CAR with the CT103A scFv) on cells; test: flow cytometry, AF647-labelled antibody on BCMA-CAR-Jurkat cells; SECOND series, also printed as 12F1 (possibly 6G8), step 9 of 10; design: scale not given here
[7] = biological target: BCMA-CAR (CAR with the CT103A scFv) on cells; test: flow cytometry, AF647-labelled antibody on BCMA-CAR-Jurkat cells; SECOND series, also printed as 12F1 (possibly 6G8), 2-fold dilution step 1 of 10 (highest); design: scale not given here
[8] = biological target: BCMA-CAR (CAR with the CT103A scFv) on cells; test: flow cytometry, AF647-labelled antibody on BCMA-CAR-Jurkat cells; first series, 2-fold dilution step 3 of 10; design: scale not given here
[9] = biological target: BCMA-CAR (CAR with the CT103A scFv) on cells; test: flow cytometry, AF647-labelled antibody on BCMA-CAR-Jurkat cells; SECOND series, also printed as 12F1 (possibly 6G8), step 10 of 10 (lowest); design: scale not given here
[10] = biological target: BCMA-CAR (CAR with the CT103A scFv) on cells; test: flow cytometry, AF647-labelled antibody on BCMA-CAR-Jurkat cells; first series, 2-fold dilution step 8 of 10; design: scale not given here
[11] = biological target: CT103A scFv; test: competition ELISA, antibody at 500 ng/ml pre-incubated with biotin-CT103A scFv; competitor: coated BCMA
CT103A scFv, sequence (scFv, as listed by the source): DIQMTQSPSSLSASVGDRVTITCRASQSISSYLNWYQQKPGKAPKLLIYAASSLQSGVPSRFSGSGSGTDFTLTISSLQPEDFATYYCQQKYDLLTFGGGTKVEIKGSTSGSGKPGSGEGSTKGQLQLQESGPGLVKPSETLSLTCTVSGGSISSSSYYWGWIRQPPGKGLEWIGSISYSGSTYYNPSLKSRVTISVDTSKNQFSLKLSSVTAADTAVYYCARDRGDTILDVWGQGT

[12] = biological target: BCMA-CAR (CAR with the CT103A scFv) on cells; test: flow cytometry, AF647-labelled antibody on BCMA-CAR-Jurkat cells; first series, 2-fold dilution step 2 of 10; design: scale not given here
[13] = biological target: BCMA-CAR (CAR with the CT103A scFv) on cells; test: flow cytometry, AF647-labelled antibody on BCMA-CAR-Jurkat cells; SECOND series, also printed as 12F1 (possibly 6G8), step 3 of 10; design: scale not given here
[14] = biological target: CT103A scFv; test: competition ELISA, antibody at 1000 ng/ml pre-incubated with biotin-CT103A scFv; competitor: coated BCMA
[15] = biological target: BCMA-CAR (CAR with the CT103A scFv) on cells; test: flow cytometry, AF647-labelled antibody on BCMA-CAR-Jurkat cells; first series, 2-fold dilution step 5 of 10; design: scale not given here
[16] = biological target: BCMA-CAR (CAR with the CT103A scFv) on cells; test: flow cytometry, AF647-labelled antibody on BCMA-CAR-Jurkat cells; SECOND series, also printed as 12F1 (possibly 6G8), step 6 of 10; design: scale not given here
[17] = biological target: BCMA-CAR (CAR with the CT103A scFv) on cells; test: flow cytometry, AF647-labelled antibody on BCMA-CAR-Jurkat cells; first series, 2-fold dilution step 4 of 10; design: scale not given here
[18] = biological target: BCMA-CAR (CAR with the CT103A scFv) on cells; test: flow cytometry, AF647-labelled antibody on BCMA-CAR-Jurkat cells; SECOND series, also printed as 12F1 (possibly 6G8), step 2 of 10; design: scale not given here
[19] = biological target: BCMA-CAR (CAR with the CT103A scFv) on cells; test: flow cytometry, AF647-labelled antibody on BCMA-CAR-Jurkat cells; first series, 2-fold dilution step 7 of 10; design: scale not given here
[20] = biological target: BCMA-CAR (CAR with the CT103A scFv) on cells; test: flow cytometry, AF647-labelled antibody on BCMA-CAR-Jurkat cells; first series, 2-fold dilution step 6 of 10; design: scale not given here
[21] = biological target: BCMA-CAR (CAR with the CT103A scFv) on cells; test: flow cytometry, AF647-labelled antibody on BCMA-CAR-Jurkat cells; first series, 2-fold dilution step 9 of 10; design: scale not given here
[22] = biological target: BCMA-CAR (CAR with the CT103A scFv) on cells; test: flow cytometry, AF647-labelled antibody on BCMA-CAR-Jurkat cells; first series, 2-fold dilution step 10 of 10 (lowest); design: scale not given here

BCMA-CAR (CAR with the CT103A scFv) on cells, sequence (chain, as listed by the source): as the sequence (scFv, as listed by the source) above

MFI [1]: 15.3 | MFI [2]: 0.81 | MFI [3]: 0.31 | MFI [4]: 1.28 | MFI [5]: 0.37 | MFI [6]: 0.25 | MFI [7]: 4.66 | MFI [8]: 15.3 | MFI [9]: 0.22 | MFI [10]: 2.83 | 信号抑制率 [11]: > 90% | MFI [12]: 15.3 | MFI [13]: 1.98 | 信号抑制率 [14]: > 90% | MFI [15]: 12.4 | MFI [16]: 0.53 | MFI [17]: 14.3 | MFI [18]: 3.16 | MFI [19]: 4.37 | MFI [20]: 7.73 | MFI [21]: 1.53 | MFI [22]: 0.94
B1: 12F1 (antibody, V domains shown)
VH: QSLEESGGRLVTPGTPLTLTCTVSGFSLNSNAMGWVRQAPGKGLEYIGFIAAYGDTHNATWAKGRFTISKTSTTVDLKITSPTTEDTATYFCASTYGGDGGWYFNIWGPGTLVTVSE
VL: AFELTQTPSSVEAAVGGTVIIKCQASQNIVRYLSWYQQKPGQPPKLLIYEASNLASGVPSRFSGSGSGTEFTLTISDLECADAATYYCQSYYDAESFNTFGGGTEVVVKG
